Source: patent US11034762 (CENTIVAX, dated 2021)

T1: MERS Receptor Binding Domain (RBD) protein (MERS virus, UniProt K9N5Q8 367-606)
T1 construct: also called Middle East Respiratory Syndrome (MERS) virus
T1 sequence: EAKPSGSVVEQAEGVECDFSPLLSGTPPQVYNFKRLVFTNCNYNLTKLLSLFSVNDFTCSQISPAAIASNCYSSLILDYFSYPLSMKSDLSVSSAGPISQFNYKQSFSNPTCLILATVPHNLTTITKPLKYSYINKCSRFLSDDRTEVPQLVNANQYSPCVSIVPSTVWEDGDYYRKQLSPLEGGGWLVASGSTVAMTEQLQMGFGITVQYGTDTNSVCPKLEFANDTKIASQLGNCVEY


Experiments:
[1] = target: SARS-CoV-2 Receptor Binding Domain (RBD) protein (SARS-CoV-2, UniProt P0DTC2 319-541)
[2] = target: T2, SARS-CoV-1 Receptor Binding Domain (RBD) protein (SARS-CoV-1, UniProt P59594 306-527); assay: SPR; clone listed as COV2 only at the 21st table, row 7, column 3
T2 construct: also called SARS1

[3] = target: T1, MERS Receptor Binding Domain (RBD) …; assay: as above
[4] = target: T2, SARS-CoV-1 Receptor Binding Domain …; assay: SPR; clone listed as COV2 only at the 21st table, row 27, column 3
[5] = target: T1, MERS Receptor Binding Domain (RBD) …; assay: as above
[6] = target: T2, SARS-CoV-1 Receptor Binding Domain …; assay: SPR; clone listed as COV2 only at the 21st table, row 8, column 3
[7] = target: T1, MERS Receptor Binding Domain (RBD) …; assay: as above
[8] = target: T2, SARS-CoV-1 Receptor Binding Domain …; assay: SPR; clone listed as COV2 only at the 21st table, row 28, column 3
[9] = target: T1, MERS Receptor Binding Domain (RBD) …; assay: as above
[10] = target: T2, SARS-CoV-1 Receptor Binding Domain …; assay: SPR; clone listed as COV2 only at the 21st table, row 34, column 3
[11] = target: T1, MERS Receptor Binding Domain (RBD) …; assay: as above
[12] = target: T2, SARS-CoV-1 Receptor Binding Domain …; assay: SPR; clone listed as COV2 only at the 21st table, row 26, column 3
[13] = target: T1, MERS Receptor Binding Domain (RBD) …; assay: as above
[14] = target: T2, SARS-CoV-1 Receptor Binding Domain …; assay: SPR; clone listed as COV2 only at the 21st table, row 33, column 3
[15] = target: T1, MERS Receptor Binding Domain (RBD) …; assay: as above
[16] = target: T2, SARS-CoV-1 Receptor Binding Domain …; assay: SPR; clone listed as COV2 only at the 21st table, row 32, column 3
[17] = target: T1, MERS Receptor Binding Domain (RBD) …; assay: as above
[18] = target: T2, SARS-CoV-1 Receptor Binding Domain …; assay: SPR; clone listed as COV2 only at the 21st table, row 29, column 3
[19] = target: T1, MERS Receptor Binding Domain (RBD) …; assay: as above
[20] = target: T2, SARS-CoV-1 Receptor Binding Domain …; assay: SPR; clone listed as COV2 only at the 21st table, row 30, column 3
[21] = target: T1, MERS Receptor Binding Domain (RBD) …; assay: as above
[22] = target: T2, SARS-CoV-1 Receptor Binding Domain …; assay: SPR; clone listed as COV2 only at the 21st table, row 24, column 3
[23] = target: T1, MERS Receptor Binding Domain (RBD) …; assay: as above
[24] = target: T2, SARS-CoV-1 Receptor Binding Domain …; assay: SPR; clone listed as COV2 only at the 21st table, row 25, column 3
[25] = target: T1, MERS Receptor Binding Domain (RBD) …; assay: as above
[26] = target: T2, SARS-CoV-1 Receptor Binding Domain …; assay: SPR; clone listed as COV2 only at the 21st table, row 35, column 3
[27] = target: T1, MERS Receptor Binding Domain (RBD) …; assay: as above

| Binder | Kd [1] | koff [1] | kon [1] | also measured |
| --- | --- | --- | --- | --- |
| COVID19_P22_E06 (scFv, V domains shown) VH: QVQLVQSGAEVKKPGSSVKVSCKASGGGFITYWIGWVRQAPGQGLEWMGIIYPGDSETRYSQKFQGRVTITADESTSTAYMELSSLRSEDTAVYYCAGGSGISSDMDVWGQGTLVTVSS VL: not shown | 42.7 nM | 0.0057 s⁻¹ | 130000 M⁻¹ s⁻¹ | binding result [2]: no binding (tested: up to 300 nM); binding result [3]: no binding (tested: up to 300 nM) |
| COVID19_P21_F11 (scFv, V domains shown) VH: QVQLVQSGAEVKKPGSSVKVSCKASGGTFSSYAISWVRQAPGQGLEWMGIIYPGDSTARYSQKFQGRVTITADESTSTAYMELSSLRSEDTAVYYCAGGSGISTLYDVWGQGTLVTVSS VL: not shown | ≤ 1.1 nM | ≤ 5.7e-05 s⁻¹ | 52300 M⁻¹ s⁻¹ | binding result [4]: no binding (tested: up to 300 nM); binding result [5]: no binding (tested: up to 300 nM) |
| COVID19_P22_G12 (scFv, V domains shown) VH: QVQLVQSGAEVKKPGSSVKVSCKASGGGFITYWIGWVRQAPGQGLEWMGIIYPGDSETRYSQKFQGRVTITADESTSTAYMELSSLRSEDTAVYYCAGGSGISTPMDVWGQGTLVTVSS VL: not shown | 38.3 nM | 0.016 s⁻¹ | 410000 M⁻¹ s⁻¹ | binding result [6]: no binding (tested: up to 300 nM); binding result [7]: no binding (tested: up to 300 nM) |
| COVID19_P09_G02 (scFv, V domains shown) VH: QVQLVQSGAEVKKPGSSVKVSCKASGGTFSSYAISWVRQAPGQGLEWMGIIYPGDSTTNYSQKFQGRVTITADESTSTAYMELSSLRSEDTAVYYCAGHWGISTPMDVWGQGTLVTVSS VL: not shown | 1.92 nM | 0.000262 s⁻¹ | 136000 M⁻¹ s⁻¹ | binding result [8]: no binding (tested: up to 300 nM); binding result [9]: no binding (tested: up to 300 nM) |
| COVID19_P21_B08 (scFv, V domains shown) VH: QVQLVQSGAEVKKPGSSVKVSCKASGGTFSSYAISWVRQAPGQGLEWMGVINTGGGSVTYAQKFQGRVTITADESTSTAYMELSSLRSEDTAVYYCAGHWGISTPMDVWGQGTLVTVSS VL: not shown | 2.95 nM | 0.000344 s⁻¹ | 117000 M⁻¹ s⁻¹ | binding result [10]: no binding (tested: up to 300 nM); binding result [11]: no binding (tested: up to 300 nM) |
| COVID19_P09_C09 (scFv, V domains shown) VH: QVQLVQSGAEVKKPGSSVKVSCKASGGTFSSYAISWVRQAPGQGLEWMGIIDPSGGSTSYAQQFQGRVTITADESTSTAYMELSSLRSEDTAVYYCAGGSGISTPMDVWGQGTLVTVSS VL: not shown | 0.99 nM | 0.000261 s⁻¹ | 264000 M⁻¹ s⁻¹ | binding result [12]: no binding (tested: up to 300 nM); binding result [13]: no binding (tested: up to 300 nM) |
| COVID19_P21_A12 (scFv, V domains shown) VH: QVQLVQSGAEVKKPGSSVKVSCKASGGTFSSYAISWVRQAPGQGLEWMGSVIPVFGRPNYAQKFQGRVTITADESTSTAYMELSSLRSEDTAVYYCAGEWGISTPMDVWGQGTLVTVSS VL: not shown | 6.01 nM | 0.000911 s⁻¹ | 152000 M⁻¹ s⁻¹ | binding result [14]: no binding (tested: up to 300 nM); binding result [15]: no binding (tested: up to 300 nM) |
| COVID19_P21_F04 (scFv, V domains shown) VH: QVQLVQSGAEVKKPGSSVKVSCKASGGTFSSYAISWVRQAPGQGLEWMGQINPSGDSTRYAQKFQGRVTITADESTSTAYMELSSLRSEDTAVYYCAGGSGISTPMDVWGQGTLVTVSS VL: not shown | 8.81 nM | 0.00037 s⁻¹ | 41900 M⁻¹ s⁻¹ | binding result [16]: no binding (tested: up to 300 nM); binding result [17]: no binding (tested: up to 300 nM) |
| COVID19_P09_E05 (scFv, V domains shown) VH: QVQLVQSGAEVKKPGSSVKVSCKASGGTFSSYAISWVRQAPGQGLEWMGIIYPGDSTTRYSQKFQGRVTITADESTSTAYMELSSLRSEDTAVYYCYSGSGISTPMDVWGQGTLVTVSS VL: not shown | 0.2 nM | 5.7e-05 s⁻¹ | 305000 M⁻¹ s⁻¹ | binding result [18]: no binding (tested: up to 300 nM); binding result [19]: no binding (tested: up to 300 nM) |
| COVID19_P10_B06 (scFv, V domains shown) VH: QVQLVQSGAEVKKPGSSVKVSCKASGGTFSSYAISWVRQAPGQGLEWMGIIYPGDSTTRYSQKFQGRVTITADESTSTAYMELSSLRSEDTAVYYCYSGSGISTPMDVWGQGTLVTVSS VL: not shown | 0.29 nM | 5.7e-05 s⁻¹ | 200000 M⁻¹ s⁻¹ | binding result [20]: no binding (tested: up to 300 nM); binding result [21]: no binding (tested: up to 300 nM) |
| COVID19_P09_H08 (scFv, V domains shown) VH: QVQLVQSGAEVKKPGSSVKVSCKASGGTFSSYAISWVRQAPGQGLEWMGGIIPIFGTTNYAQKFQGRVTITADESTSTAYMELSSLRSEDTAVYYCAGEWGISTPMDVWGQGTLVTVSS VL: not shown | 3.25 nM | 0.00039 s⁻¹ | 120000 M⁻¹ s⁻¹ | binding result [22]: no binding (tested: up to 300 nM); binding result [23]: no binding (tested: up to 300 nM) |
| COVID19_P09_B07 (scFv, V domains shown) VH: QVQLVQSGAEVKKPGSSVKVSCKASGGTFSSYAISWVRQAPGQGLEWMGGIIPTLGTANYAQKFQGRVTITADESTSTAYMELSSLRSEDTAVYYCAGSWGISTPMDVWGQGTLVTVSS VL: not shown | 3.66 nM | 0.000533 s⁻¹ | 146000 M⁻¹ s⁻¹ | binding result [24]: no binding (tested: up to 300 nM); binding result [25]: no binding (tested: up to 300 nM) |
| COVID19_P21_F08 (scFv, V domains shown) VH: QVQLVQSGAEVKKPGSSVKVSCKASGGTFSTYAFNWVRQAPGQGLEWMGVINTGGGSVTYAQKFQGRVTITADESTSTAYMELSSLRSEDTAVYYCAGGSGISTPGAVWGQGTLVTVSS VL: not shown | 16.3 nM | 0.000893 s⁻¹ | 54900 M⁻¹ s⁻¹ | binding result [26]: no binding (tested: up to 300 nM); binding result [27]: no binding (tested: up to 300 nM) |
